PMC9482650, “Quantitative fragmentomics allow affinity mapping of interactomes” (Nature Communications, 2022)
One block for each binder: values may come before it.

Legend:
Assay in all cases: holdup assay
Parameters in all cases: key: below the threshold = too weak to quantify, mostly under pKd 3.1 to 4
Conditions in all cases: plain residues with an end cap or a label only (N-terminal biotin on a linker: ado-ado)
[1] = target: T1, APBA1_2, Q02410
T1 sequence (Q02410 742-832, limits assumed, looked up): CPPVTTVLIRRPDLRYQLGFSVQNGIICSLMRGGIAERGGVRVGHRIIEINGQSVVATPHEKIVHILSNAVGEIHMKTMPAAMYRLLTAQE

[2] = target: IL16_3, Q14005
[3] = target: FRMPD2_3, Q68DX3
[4] = target: GRIP2_7, Q9C0E4
[5] = target: T2, PDZD2_2, O15018
T2 sequence (O15018 329-429, limits assumed, looked up): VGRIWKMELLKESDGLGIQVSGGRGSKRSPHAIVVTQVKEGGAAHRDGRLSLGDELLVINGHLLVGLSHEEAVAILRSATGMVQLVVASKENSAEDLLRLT

[6] = target: T3, TJP3_3, O95049
T3 sequence (O95049 375-456, limits assumed, looked up): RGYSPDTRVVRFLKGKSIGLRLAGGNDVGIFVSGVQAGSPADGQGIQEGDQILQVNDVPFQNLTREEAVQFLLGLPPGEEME

[7] = target: DLG2_2, Q15700
[8] = target: T4, APBA3_1, O96018
T4 sequence (O96018 389-490, limits assumed, looked up): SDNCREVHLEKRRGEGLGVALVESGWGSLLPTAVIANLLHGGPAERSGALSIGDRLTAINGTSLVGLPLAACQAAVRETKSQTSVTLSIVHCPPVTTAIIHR

[9] = target: T5, APBA2_1, Q99767
T5 sequence (Q99767 563-664, limits assumed, looked up): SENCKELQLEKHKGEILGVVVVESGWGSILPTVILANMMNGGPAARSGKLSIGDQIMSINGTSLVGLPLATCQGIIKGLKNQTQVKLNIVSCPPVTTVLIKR

[10] = target: T6, NHERF3_3, Q5T2W1
T6 sequence (Q5T2W1 238-333, limits assumed, looked up): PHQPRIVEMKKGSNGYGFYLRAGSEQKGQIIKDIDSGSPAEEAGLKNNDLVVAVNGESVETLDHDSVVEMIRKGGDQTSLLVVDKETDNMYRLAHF

[11] = target: T7, PDZD7_3, Q9H5P4
T7 sequence (Q9H5P4 857-944, limits assumed, looked up): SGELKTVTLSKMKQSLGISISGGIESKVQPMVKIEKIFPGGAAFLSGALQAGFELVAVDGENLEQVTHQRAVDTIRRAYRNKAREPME

[12] = target: Inadl_9, Q8NI35
[13] = target: T8, DVL3, Q92997
T8 sequence (Q92997 244-331, limits assumed, looked up): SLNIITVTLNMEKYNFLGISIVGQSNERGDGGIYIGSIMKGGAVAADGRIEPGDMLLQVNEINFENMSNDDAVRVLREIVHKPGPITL

[14] = target: MAST1, Q9Y2H9
[15] = target: TJP1_3, Q07157
[16] = target: T9, NHERF3_4, Q5T2W1
T9 sequence (Q5T2W1 373-468, limits assumed, looked up): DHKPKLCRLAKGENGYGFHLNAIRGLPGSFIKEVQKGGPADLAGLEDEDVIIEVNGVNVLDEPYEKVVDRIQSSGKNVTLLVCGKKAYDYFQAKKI

[17] = target: T10, DFNB31_3, Q9P202
T10 sequence (Q9P202 811-907, limits assumed, looked up): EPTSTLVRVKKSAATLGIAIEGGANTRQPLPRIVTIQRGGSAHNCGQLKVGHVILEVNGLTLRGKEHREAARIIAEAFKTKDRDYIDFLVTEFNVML

[18] = target: T11, LRRC7, Q96NW7
T11 sequence (Q96NW7 1440-1537, limits assumed, looked up): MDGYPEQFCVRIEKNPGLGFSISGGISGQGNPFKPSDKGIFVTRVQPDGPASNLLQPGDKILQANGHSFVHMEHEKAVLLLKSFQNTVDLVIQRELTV

[19] = target: T12, GRIP1_3, Q9Y3R0
T12 sequence (Q9Y3R0 247-346, limits assumed, looked up): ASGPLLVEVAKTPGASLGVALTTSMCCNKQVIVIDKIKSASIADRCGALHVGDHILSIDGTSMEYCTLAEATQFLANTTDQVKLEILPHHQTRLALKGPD

[20] = target: T13, HTRA3, P83110
T13 sequence (P83110 354-453, limits assumed, looked up): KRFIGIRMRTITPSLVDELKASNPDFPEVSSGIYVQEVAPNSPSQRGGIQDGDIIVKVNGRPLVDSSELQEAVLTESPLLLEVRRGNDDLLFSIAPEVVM

[21] = target: T14, LNX2_3, Q8N448
T14 sequence (Q8N448 463-564, limits assumed, looked up): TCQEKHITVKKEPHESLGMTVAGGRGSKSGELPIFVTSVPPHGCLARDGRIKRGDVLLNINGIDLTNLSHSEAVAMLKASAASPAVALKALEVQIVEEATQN

[22] = target: Inadl_5, Q8NI35
[23] = target: GIPC2, Q8TF65
[24] = target: LNX1_1, Q8TBB1
Chain of LNX1_1, Q8TBB1 (Q8TBB1 261-371): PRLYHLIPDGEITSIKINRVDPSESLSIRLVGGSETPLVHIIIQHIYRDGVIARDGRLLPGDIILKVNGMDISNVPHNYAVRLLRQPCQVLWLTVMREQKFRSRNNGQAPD

Chain of MAST1, Q9Y2H9 (Q9Y2H9 962-1065): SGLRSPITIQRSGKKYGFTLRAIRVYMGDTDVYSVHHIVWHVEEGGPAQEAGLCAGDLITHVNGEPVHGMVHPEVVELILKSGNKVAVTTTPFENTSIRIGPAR
Chain of FRMPD2_3, Q68DX3 (Q68DX3 1073-1166): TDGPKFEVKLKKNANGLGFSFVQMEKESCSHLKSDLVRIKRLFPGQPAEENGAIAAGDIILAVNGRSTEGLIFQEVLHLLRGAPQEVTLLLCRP
Chain of Inadl_5, Q8NI35 (Q8NI35 673-780): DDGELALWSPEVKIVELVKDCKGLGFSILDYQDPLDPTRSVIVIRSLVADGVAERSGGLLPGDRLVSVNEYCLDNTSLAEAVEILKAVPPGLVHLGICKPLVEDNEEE
Chain of IL16_3, Q14005 (Q14005 1107-1207): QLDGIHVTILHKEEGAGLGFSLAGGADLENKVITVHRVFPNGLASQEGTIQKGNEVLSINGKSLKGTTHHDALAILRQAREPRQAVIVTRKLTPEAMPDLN
Chain of GIPC2, Q8TF65 (Q8TF65 112-203): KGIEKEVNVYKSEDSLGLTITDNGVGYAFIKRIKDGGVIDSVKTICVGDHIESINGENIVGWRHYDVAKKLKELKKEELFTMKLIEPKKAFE
Chain of GRIP2_7, Q9C0E4 (Q9C0E4 934-1023): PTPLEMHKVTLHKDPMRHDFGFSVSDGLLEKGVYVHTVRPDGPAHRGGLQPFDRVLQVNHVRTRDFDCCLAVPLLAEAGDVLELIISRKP
Chain of Inadl_9, Q8NI35 (Q8NI35 1530-1615): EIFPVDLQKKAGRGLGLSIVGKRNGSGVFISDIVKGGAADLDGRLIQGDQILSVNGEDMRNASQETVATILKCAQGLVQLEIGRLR
Chain of TJP1_3, Q07157 (Q07157 416-512): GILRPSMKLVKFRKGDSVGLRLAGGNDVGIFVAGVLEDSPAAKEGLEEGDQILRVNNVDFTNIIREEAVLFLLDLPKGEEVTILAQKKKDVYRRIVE
Chain of DLG2_2, Q15700 (Q15700 189-283): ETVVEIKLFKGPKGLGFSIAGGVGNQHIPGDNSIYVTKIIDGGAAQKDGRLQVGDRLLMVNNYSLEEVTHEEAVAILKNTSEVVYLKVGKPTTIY

pKd [1]: 4 | pKd [2]: below the threshold | pKd [3]: below the threshold | pKd [4]: below the threshold | pKd [5]: below the threshold | pKd [6]: below the threshold | pKd [7]: below the threshold | pKd [8]: below the threshold | pKd [9]: below the threshold | pKd [10]: 4.47 | pKd [11]: 4.43 | pKd [12]: below the threshold | pKd [13]: below the threshold | pKd [14]: 4.84 | pKd [15]: below the threshold | pKd [16]: 4.09 | pKd [17]: below the threshold | pKd [18]: below the threshold | pKd [19]: below the threshold | pKd [20]: below the threshold | pKd [21]: below the threshold | pKd [22]: below the threshold | pKd [23]: below the threshold
B1: SLC34A1, Q06495;Q06495-1 (peptide)
chain: LPAHHNATRL

pKd [1]: 3.68 | pKd [2]: below the threshold | pKd [3]: below the threshold | pKd [4]: below the threshold | pKd [5]: 4.81 | pKd [24]: 4.08 | pKd [6]: below the threshold | pKd [7]: 4.72 | pKd [8]: below the threshold | pKd [9]: below the threshold | pKd [10]: below the threshold | pKd [11]: 4.12 | pKd [12]: below the threshold | pKd [13]: below the threshold | pKd [14]: 4.7 | pKd [15]: below the threshold | pKd [16]: below the threshold | pKd [17]: below the threshold | pKd [18]: 4.61 | pKd [19]: below the threshold | pKd [20]: below the threshold | pKd [21]: below the threshold | pKd [22]: below the threshold | pKd [23]: 3.83
B2: TANC1, Q9C0D5 (peptide)
chain: PKRSFIESNV

pKd [1]: below the threshold | pKd [2]: below the threshold | pKd [3]: below the threshold | pKd [4]: below the threshold | pKd [5]: below the threshold | pKd [24]: below the threshold | pKd [6]: below the threshold | pKd [8]: below the threshold | pKd [11]: below the threshold | pKd [13]: below the threshold | pKd [14]: below the threshold | pKd [16]: below the threshold | pKd [17]: below the threshold | pKd [18]: below the threshold | pKd [19]: below the threshold | pKd [20]: below the threshold | pKd [21]: below the threshold | pKd [22]: below the threshold | pKd [23]: below the threshold
B3: TRIM29, Q14134;Q14134-2 (peptide)
chain: KSGKQTMLVV
